Data taken from patent publication US5804555A, “Antioxidant” (Morinaga Milk Industry Co., Ltd., priority 1992, dated 1998).

Experiment: Test 1: antioxidant effect on linoleic acid, peroxides by ferric thiocyanate method
Assay type: biochemical
Details: 0.2% added to linoleic acid, 60° C.
Method: A sample was prepared by adding dl-α tocopherol (manufactured by Wako Jun-yaku Kogyo Company), bovine lactoferrin (manufactured by Sigma Company), hydrolysate of lactoferrin (prepared by the same method as in the Example 2), or peptide (prepared by the same method as in the Example 3) to a final concentration of 0.2% (weight percentage; same applies hereafter except for the degree of decomposition) to commercially available linoleic acid (manufactured by Wako Jun-Yaku Kogyo Company) containing no additive. Hereafter, the thus prepared samples are individually referred to as […].
Antioxidant effect of the individual samples was tested by the method of Mitsuda et al.(Eiyo to Shokuryo, Vol. 19, p. 210, 1966) described below.
The above-mentioned samples were added to a mixed solution containing 10 ml of ethanol, 10 ml of 0.1M phosphate buffer solution (pH: 7.0), and 5 ml of deionized water so as to achieve a final concentration of linoleic acid of […](mol/l). This solution was placed in a vial bottle having a capacity of 50 ml, and the closely plugged bottle was held in an incubator at 60° C. The total volume was always adjusted to 25 ml by reducing the above-mentioned ionized water, depending upon the quantity of added sample. At prescribed time intervals, 0.1 ml was sampled from this vial bottle to measure the quantity of peroxides by the following ferric thiocyanate method.
To the sample solution in an amount of 0.1 ml, 4.7 ml of 75% ethanol, 0.1 ml of 30% ammonium rhodanide, and 0.1 ml of 3.5% hydrochloric acid solution of 2×10^-2 M ferrous chloride were added, and absorbance at 500 nm was measured upon the lapse of just three minutes.

B1: Sample 3: Test 1 Sample 3: bovine lactoferrin (Sigma Company) added to linoleic acid (protein)
chain: APRKNVRWCTISQPEWFKCRRWQWRMKKLGAPSITCVRRAFALECIRAIAEKKADAVTLDGGMVFEAGRDPYKLRPVAAEIYGTKESPQTHYYAVAVVKKGSNFQLDQLQGRKSCHTGLGRSAGWIIPMGILRPYLSWTESLEPLQGAVAKFFSASCVPCIDRQAYPNLCQLCKGEGENQCACSSREPYFGYSGAFKCLQDGAGDVAFVKETTVFENLPEKADRDQYELLCLNNSRAPVDAFKECHLAQVPSHAVVARSVDGKEDLIWKLLSKAQEKFGKNKSRSFQLFGSPPGQRDLLFKDSALGFLRIPSKVDSALYLGSRYLTTLKNLRETAEEVKARYTRVVWCAVGPEEQKKCQQWSQQSGQNVTCATASTTDDCIVLVLKGEADALNLDGGYIYTAGKCGLVPVLAENRKSSKHSSLDCVLRPTEGYLAVAVVKKANEGLTWNSLKDKKSCHTAVDRTAGWNIPMGLIVNQTGSCAFDEFFSQSCAPGADPKSRLCALCAGDDQGLDKCVPNSKEKYYGYTGAFRCLAEDVGDVAFVKNDTVWENTNGESTADWAKNLNREDFRLLCLDGTRKPVTEAQSCHLAVAPNHAVVSRSDRAAHVKQVLLHQQALFGKNGKNCPDKFCLFKSETKNLLFNDNTECLAKLGGRPTYEEYLGTEYVTAIANLKKCSTSPLLEACAFLTR
Degree of peroxidation (absorbance at 500 nm) (period of preservation 0 days): 0 | Degree of peroxidation (absorbance at 500 nm) (period of preservation 3 days): 0.23 | Degree of peroxidation (absorbance at 500 nm) (period of preservation 6 days): 0.30 | Degree of peroxidation (absorbance at 500 nm) (period of preservation 10 days): 0.31 | Degree of peroxidation (absorbance at 500 nm) (period of preservation 13 days): 0.32
